Reference: patent US20240279350A1 (Sanofi, published 2024)

Key:
human CD40 on cells [1] = target: T1, human CD40 on cells (human, UniProt P25942 21-277); assay: cell-based or functional assay
human CD40 on cells [2] = target: T1, human CD40 on cells; assay: flow cytometry on human primary naive B-cells, 1 h at 4 °C, AF488-conjugated secondary antibody (MFI)
Procedure: (§1) Naive B-cell were plated at a density of […] cells per well in 96-well plates and incubated with CD40 agonists, hexameric ligand and anti-CD40 antibodies, for 1 hour at 4° C.

human CD40 on cells [3] = target: T1, human CD40 on cells; assay: as above; remark: listed apart in the source
Procedure: as §1

recombinant human CD40 = target: T2, recombinant human CD40 (human, UniProt P25942 21-193); assay: SPR (Biacore 8K+), antibody captured on protein A/G, recombinant hCD40 as analyte, 1:1 model
T2 construct: Soluble analyte in SPR; also called Recombinant hCD40; hCD40
Procedure: Protein A/G was immobilized to the surface of a CM5 series S chip using amine chemistry. Test compounds were then captured to the surface between 120 RU and 170 RU. Recombinant hCD40 was diluted 2-fold from 300 nM to 2.34 nM in HBS-EP+buffer. […] Glycine (10 mM) pH 1.5 was used to regenerate the chip surface. The binding affinity (KD) was determine using a 1:1-binding model by a global fit of all the concentrations.

[4] = target: rhesus CD40 on HEK293H reporter cells (rhesus, UniProt F6SNI1 21-278); assay: cell-based or functional assay
[5] = target: T3, cynomolgus CD40 on HEK293 cells (cynomolgus, UniProt G7PG38 21-278); assay: flow cytometry on cynomolgus CD40-expressing HEK293 cells, 1 h at 4 °C, AF488-conjugated secondary antibody (MFI)
T3 construct: whole, on cells; also called cyno CD40; cynoCD40-expressing HEK293 cells
Procedure: Cyno CD40-expressing HEK293 cells were plated at a density of 50×10³ cells per well in 96-well plates and incubated with serially diluted concentrations of CD40 agonists, hexameric ligand and anti-CD40 antibodies, for 1 hour at 4° C. Cells were then harvested and incubated with AF488-conjugated secondary antibody before flow cytometry analysis using a Fortessa X20.
Data from the flow cytometer was analyzed using FlowJo (V10.8.1), then the binding curves, the Eₘₐₓ, and EC₅₀ values were plotted using GraphPad Prism (V9.1.2).

human CD40 on cells [6] = target: T1, human CD40 on cells; assay: cell-based or functional assay; remark: listed apart in the source
human CD40 on cells [7] = target: T1, human CD40 on cells; assay: flow cytometry on U-2 OS/NFκB cells (further experiment), APC-conjugated anti-human IgG secondary antibody (median fluorescence intensity)
Procedure: Briefly, cultured U-2 OS/NFκB cells were seeded in 96-well plates at 1.0×10⁵ cells/well and incubated with serially-diluted test antibodies for 60 minutes at 4° C. in 2% FBS/dPBS buffer. The cells were then washed twice with dPBS and further incubated with secondary allophycocyanin (APC)-conjugated AffiniPure F(ab′)₂ fragment donkey anti-human IgG (H+L) antibody (Jackson ImmunoResearch, Ref. 709-136-149) (1:500) for 30 minutes at 4° C. Finally, the cells were washed twice with dPBS and suspended in FACS buffer for flow cytometry analysis. MFI values vs concentrations were analyzed by FlowJo and data were further fitted with four-parameter non-linear regression to get EC₅₀ values by GraphPad Prism software.

human CD40 on cells [8] = target: T1, human CD40 on cells; assay: cell-based or functional assay; remark: listed apart in the source

T2 sequence (P25942 21-193 limits assumed): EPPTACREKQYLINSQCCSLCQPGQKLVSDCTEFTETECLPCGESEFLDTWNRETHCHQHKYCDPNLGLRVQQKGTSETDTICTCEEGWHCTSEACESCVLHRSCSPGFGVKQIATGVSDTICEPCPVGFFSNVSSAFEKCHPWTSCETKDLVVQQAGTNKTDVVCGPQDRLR
T1 sequence (P25942 21-277 limits assumed): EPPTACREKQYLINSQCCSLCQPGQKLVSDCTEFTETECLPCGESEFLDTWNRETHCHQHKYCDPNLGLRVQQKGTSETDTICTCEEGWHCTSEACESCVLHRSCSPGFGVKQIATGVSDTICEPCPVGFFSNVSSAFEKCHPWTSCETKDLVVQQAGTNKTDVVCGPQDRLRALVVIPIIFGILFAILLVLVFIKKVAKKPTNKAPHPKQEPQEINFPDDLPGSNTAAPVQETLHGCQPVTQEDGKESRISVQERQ

B1: mAb2 (Y32K/S77P) (antibody, human IgG2, kappa, V domains shown)
VH: QVQLVQSGAEVKKPGASVKVSCKASGYTFTGKYMHWVRQAPGQGLEWMGWINPDSGGTNYAQKFQGRVTMTRDTSIPTAYMELNRLRSDDTAVYYCARDQPLGYCTNGVCSYFDYWGQGTLVTVSS
VL: DIQMTQSPSSVSASVGDRVTITCRASQGIYSWLAWYQQKPGKAPNLLIYTASTLQSGVPSRFSGSGSGTDFTLTISSLQPEDFATYYCQQANIFPLTFGGGTKVEIKR
notes: Mutant of AbC1 with the same constant regions (IgG2)
Human CD40 on cells [1]
  EC50, NFkB-luciferase reporter assay, human NFkB-Luc2P/U-2 OS cells: 0.54 nM
  Top, NFkB-luciferase reporter assay, human NFkB-Luc2P/U-2 OS cells: 45.2 nM
Human CD40 on cells [2]
  EC50 (read off the curve): ~2 nM

B2: mAb3 (Y32K) (antibody, human IgG2, kappa, V domains shown)
VH: QVQLVQSGAEVKKPGASVKVSCKASGYTFTGKYMHWVRQAPGQGLEWMGWINPDSGGTNYAQKFQGRVTMTRDTSISTAYMELNRLRSDDTAVYYCARDQPLGYCTNGVCSYFDYWGQGTLVTVSS
VL: DIQMTQSPSSVSASVGDRVTITCRASQGIYSWLAWYQQKPGKAPNLLIYTASTLQSGVPSRFSGSGSGTDFTLTISSLQPEDFATYYCQQANIFPLTFGGGTKVEIKR
notes: as for B1
Human CD40 on cells [3]
  EC50 (read off the curve): ~5 nM
Recombinant human CD40
  Kd: 91 nM
  koff: 0.0041 s⁻¹
  kon: 45000 M⁻¹ s⁻¹
Human CD40 on cells [1]
  EC50, NFkB-luciferase reporter assay, human NFkB-Luc2P/U-2 OS cells: 0.44 nM
  Top, NFkB-luciferase reporter assay, human NFkB-Luc2P/U-2 OS cells: 48.9 nM
[4]
  EC50, luciferase reporter assay, HEK293H rhesus CD40 reporter cells: 0.59 nM
  Top, luciferase reporter assay, HEK293H rhesus CD40 reporter cells: 3.54 nM
[5]
  EC50 (read off the curve): ~2 nM

B3: AbC1 (antibody, human IgG2, kappa, V domains shown)
VH: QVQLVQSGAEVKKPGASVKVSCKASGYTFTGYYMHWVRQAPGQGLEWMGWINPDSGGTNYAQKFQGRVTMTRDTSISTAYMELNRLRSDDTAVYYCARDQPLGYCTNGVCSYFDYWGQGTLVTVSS
VL: DIQMTQSPSSVSASVGDRVTITCRASQGIYSWLAWYQQKPGKAPNLLIYTASTLQSGVPSRFSGSGSGTDFTLTISSLQPEDFATYYCQQANIFPLTFGGGTKVEIKR
notes: Human IgG2; also called parental antibody; parental AbC1 antibody
Human CD40 on cells [6]
  EC50, CD83 expression, MoDC maturation assay: 1.02 nM
  EC50, IL-8 release, MoDC maturation assay: 1.92 nM
Human CD40 on cells [7]
  EC50 (read off the curve): ~2 nM
Human CD40 on cells [3]
  EC50 (read off the curve): ~4 nM
Recombinant human CD40
  Kd: 18 nM
  koff: 0.0019 s⁻¹
  kon: 110000 M⁻¹ s⁻¹
Human CD40 on cells [1]
  EC50, NFkB-luciferase reporter assay, human NFkB-Luc2P/U-2 OS cells: 1.43 nM
  Top, NFkB-luciferase reporter assay, human NFkB-Luc2P/U-2 OS cells: 16.2 nM
[4]
  EC50, luciferase reporter assay, HEK293H rhesus CD40 reporter cells: 0.09 nM
  Top, luciferase reporter assay, HEK293H rhesus CD40 reporter cells: 1.91 nM
Human CD40 on cells [8]
  EC50, CD83 expression, B-cells of hCD40 KI mice: 0.034 nM
  EC50, CD86 expression, B-cells of hCD40 KI mice: 0.011 nM
[5]
  EC50 (read off the curve): ~1 nM
Human CD40 on cells [2]
  EC50 (read off the curve): ~1 nM
